Laboratory results from patent publication US12577536B2, “Method for isolating ureteric bud tip cells” (KYOTO UNIVERSITY, priority 2019, dated 2026).

Tested on: tip cell colonies
Assay: Reconstitution of iUB organoids from tip cell colonies
Format: cell-based, human
Conditions: organoid medium with Wnt3a conditioned medium and R-spondin 1 in place of CHIR99021
Protocol: Hydrogel was dissolved with Cell Recovery Solution (BD Biosciences) for 1 h at 4° C. to detach day 7 tip cell colonies. After washing with additional Cell Recovery Solution, the tip cell colonies were centrifuged at 500 g for 5 min at room temperature. Essential 6 medium containing 0.1 μM LDN193189, 100 ng/ml GDNF, 0.1 μM TTNPB, 200 ng/ml FGF8, 1 μM CHIR99021 or 10% Afamin/Wnt3a conditioned medium (MBL), 200 ng/ml R-spondin 1 (R&D systems), 50 ng/ml EGF, 200 ng/ml FGF1 and 10% Matrigel was applied to the tube including tip cell colonies. After pipetting gently with a wide-mouth micropipette (BMBio) not to break colonies, the suspension was distributed to low-attachment 35 mm dish (Sumitomo Bakelite) at 2 mL/dish. The medium was refreshed every 2 days. On day 4, each colony was placed onto one well of low-attachment 96-well plates in the same medium. After an additional 6 days, the tip region was separated from the reconstituted iUB organoid and treated with the same medium for 35 days.

B1: R-spondin 1: Wnt signaling activator (R&D systems) (protein, UniProt Q2MKA7 21-263, looked up)
R-spondin-1: SRGIKGKRQRRISAEGSQACAKGCELCSEVNGCLKCSPKLFILLERNDIRQVGVCLPSCPPGYFDARNPDMNKCIKCKIEHCEACFSHNFCTKCKEGLYLHKGRCYPACPEGSSAANGTMECSSPAQCEMSEWSPWGPCSKKQQLCGFRRGSEERTRRVLHAPVGDHAACSDTKETRRCTVRRVPCPEGQKRRKGGQGRRENANRNLARKESKEAGAGSRRRKGQQQQQQQGTVGPLTSAGPA
Q: With B1 as the molecule, how does the “reconstitution of iUB organoids from tip cell colonies” value read?
A: iUB organoids could be reconstituted from tip cell colonies derived from any iPS cell lines
